Reference: patent US6528275B1, “Substrates and inhibitors of proteolytic enzymes” (Peptide Therapeutics Limited, priority 1996, dated 2003)

How the values were obtained:
Test in all cases: Der pI substrate assay with FRET peptides (fluorescence, Km, kcat/Km)
Type in all cases: biochemical, house dust mite
Details in all cases: other: purified Der pI; peptides SEQ ID Nos. 1-76; pH 8.25
[1] = substrate: CC(C)CC[C@H](NC(=O)[C@H](C)NC(=O)[C@H](Cc1ccc(-c2ccccc2)cc1)NC(=O)c1ccccc1N)C(=O)N[C@@H](CC(=O)O)C(=O)N[C@@H](Cc1ccc(O)c([N+](=O)[O-])c1)C(=O)N[C@@H](CC(=O)O)C(N)=O
Protocol: (§1) Using the general techniques described above, the following compounds were prepared and assayed as potential substrates against Der pI purified as described above.
(§2) Each mixture of 20 compounds in the libraries of the apparatus described herein was screened at a concentration of 1.0 μM per compound in an assay against the cysteinyl protease Der pI.
(§3) Plate assays were carried out in 96 well plate format, using 0.1 ug of Der pI per 100 μL assay volume in each well and using 20 μM of the substrate. All assays were performed in Assay Buffer (AB; 50 mM potassium phosphate, pH 8.25 containing 1 mM ethylenediaminetetraacetic acid (EDTA) and 1 mM dithiothreitol (DTT). The Der pI enzyme is pre-activated by addition of DTT and this in incubated at room temperature for 5 min. prior to initiation of the assay. As an example for the screening methodology, each well contains a 5 μL of a 20 μM solution of the test compound in DMSO, 10 μL of a 200 μM aqueous solution of the substrate, 2, and 85 μL of Der pI in AB is added to initiate the reaction. Enzyme activity is monitored by fluorescence using 320 nm for excitation and 420 nm for the emission wavelengths using a Labsystems Fluroskan Ascent machine. Kinetic measurements were carried out using a Hitachi F-4500 Fluorescence Spectrophotometer.

[2] = substrate: CC(C)CC[C@H](NC(=O)[C@H](C)NC(=O)[C@H](CC1CCCCC1)NC(=O)c1ccccc1N)C(=O)N[C@@H](CO)C(=O)N[C@@H](Cc1ccc(O)c([N+](=O)[O-])c1)C(=O)N[C@@H](CC(=O)O)C(N)=O
Protocol: as §1, §2, §3

[3] = substrate: CCCC[C@H](NC(=O)[C@H](C)NC(=O)[C@@H](NC(=O)[C@H](Cc1ccc(-c2ccccc2)cc1)NC(=O)c1ccccc1N)C(C)C)C(=O)N[C@@H](CO)C(=O)N[C@@H](Cc1ccc(O)c([N+](=O)[O-])c1)C(=O)N[C@@H](CC(=O)O)C(N)=O
Protocol: as §1, §2, §3

[4] = substrate: CC(C)CC[C@H](NC(=O)[C@H](CC[S+](C)[O-])NC(=O)[C@@H](NC(=O)c1ccccc1N)C(C)C)C(=O)N[C@@H](CO)C(=O)N[C@@H](Cc1ccc(O)c([N+](=O)[O-])c1)C(=O)N[C@@H](CC(=O)O)C(N)=O
Protocol: as §1, §2, §3

B1: Der pI (Dermatophagoides pteronyssinus) (protein)
chain: TNACSINGNAPAEIDLRQMRTVTPIRMQGGCGSCWAFSGVAATESAYLAYRNQSLDLAEQELVDCASQHGCHGDTIPRGIEYIQHNGVVQESYYRYVAREQSCRRPNAQRFGISNYCQIYPPNVNKIREALAQTHSAIAVIIGIKDLDAFRHYDGRTIIQRDNGYQPNYHAVNIVGYSNAQGVDYWIVRNSWDTNWGDNGYGYFAANIDLMMIEEYPYVVIL
notes: tissue SmithKline-Beecham, U.K (crude mite extract); host or cells: crude house dust mite extract
Question: B1 was tested. Which Km [1] did it give?
Answer: 5.0 µM

Question: What about the Km [2] of the same protein?
Answer: 9 µM

Question: What about the Km [3] of the same protein?
Answer: 10 µM

Question: What about the Km [4] of the same protein?
Answer: 35 µM
